According to article PMC4407695 (Journal of molecular biology, 2014):

T1: wild-type full-length Merlin(wt) (human, UniProt P35240 1-595)
T1 sequence (looked up): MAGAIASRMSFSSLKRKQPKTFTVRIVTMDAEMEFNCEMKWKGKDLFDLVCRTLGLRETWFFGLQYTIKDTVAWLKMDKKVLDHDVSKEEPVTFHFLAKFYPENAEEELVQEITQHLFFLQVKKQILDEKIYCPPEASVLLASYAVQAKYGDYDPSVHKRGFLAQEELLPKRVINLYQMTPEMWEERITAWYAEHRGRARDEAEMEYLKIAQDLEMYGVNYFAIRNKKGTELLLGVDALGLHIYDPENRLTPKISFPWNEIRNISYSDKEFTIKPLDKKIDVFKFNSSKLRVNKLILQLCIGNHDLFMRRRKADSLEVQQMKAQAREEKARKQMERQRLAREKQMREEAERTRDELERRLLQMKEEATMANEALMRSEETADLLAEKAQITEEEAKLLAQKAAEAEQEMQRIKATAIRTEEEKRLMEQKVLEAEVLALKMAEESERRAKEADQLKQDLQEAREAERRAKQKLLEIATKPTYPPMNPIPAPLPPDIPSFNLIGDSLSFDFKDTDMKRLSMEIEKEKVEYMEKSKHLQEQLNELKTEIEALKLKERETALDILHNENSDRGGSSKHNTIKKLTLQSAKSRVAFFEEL

T2: Merlin(S518D) (human, UniProt P35240 1-595, S518D)
T2 sequence (looked up): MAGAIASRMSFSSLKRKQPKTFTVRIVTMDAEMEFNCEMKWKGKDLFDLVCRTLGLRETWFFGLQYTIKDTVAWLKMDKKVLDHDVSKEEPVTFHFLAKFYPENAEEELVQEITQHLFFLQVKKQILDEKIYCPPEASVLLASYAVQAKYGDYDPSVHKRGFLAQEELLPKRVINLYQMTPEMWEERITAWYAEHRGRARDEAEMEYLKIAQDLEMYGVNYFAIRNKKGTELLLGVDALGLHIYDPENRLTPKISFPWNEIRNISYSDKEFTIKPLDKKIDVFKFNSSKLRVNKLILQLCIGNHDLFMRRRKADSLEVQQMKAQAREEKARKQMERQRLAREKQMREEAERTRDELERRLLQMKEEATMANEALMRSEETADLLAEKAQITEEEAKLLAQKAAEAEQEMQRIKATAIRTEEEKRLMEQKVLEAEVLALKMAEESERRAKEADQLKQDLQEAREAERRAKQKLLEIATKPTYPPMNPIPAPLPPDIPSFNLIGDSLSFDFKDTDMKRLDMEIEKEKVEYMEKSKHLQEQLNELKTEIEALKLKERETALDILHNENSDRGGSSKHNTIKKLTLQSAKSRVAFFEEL

B1: FERM domain of Merlin (domain or fragment, human, UniProt P35240 22-311, looked up)
chain: FTVRIVTMDAEMEFNCEMKWKGKDLFDLVCRTLGLRETWFFGLQYTIKDTVAWLKMDKKVLDHDVSKEEPVTFHFLAKFYPENAEEELVQEITQHLFFLQVKKQILDEKIYCPPEASVLLASYAVQAKYGDYDPSVHKRGFLAQEELLPKRVINLYQMTPEMWEERITAWYAEHRGRARDEAEMEYLKIAQDLEMYGVNYFAIRNKKGTELLLGVDALGLHIYDPENRLTPKISFPWNEIRNISYSDKEFTIKPLDKKIDVFKFNSSKLRVNKLILQLCIGNHDLFMRRR
B2: NHERF1 (natural protein, UniProt O14745 1-358, looked up)
chain: MSADAAAGAPLPRLCCLEKGPNGYGFHLHGEKGKLGQYIRLVEPGSPAEKAGLLAGDRLVEVNGENVEKETHQQVVSRIRAALNAVRLLVVDPETDEQLQKLGVQVREELLRAQEAPGQAEPPAAAEVQGAGNENEPREADKSHPEQRELRPRLCTMKKGPSGYGFNLHSDKSKPGQFIRSVDPDSPAEASGLRAQDRIVEVNGVCMEGKQHGDVVSAIRAGGDETKLLVVDRETDEFFKKCRVIPSQEHLNGPLPVPFTNGEIQKENSREALAEAALESPRPALVRSASSDTSEELNSQDSPPKQDSTAPSSTSSSDPILDFNISLAMAKERAHQKRSSKRAPQMDWSKKNELFSNL

What was measured:
NHERF1 [1] = biological target: B2; assay: ITC
NHERF1 [2] = biological target: B2; assay: SPR
FERM domain of Ezrin = FERM domain of Ezrin (UniProt P15311 2-296); assay: ITC
FERM domain of Merlin = biological target: B1; assay: ITC
[3] = biological target: T1, wild-type full-length Merlin(wt); assay: ITC
Merlin(S518D) [4] = biological target: T2, Merlin(S518D); assay: ITC
[5] = biological target: T1, wild-type full-length Merlin(wt); assay: SPR
Merlin(S518D) [6] = biological target: T2, Merlin(S518D); assay: SPR

FERM domain of Ezrin, sequence (P15311 2-296): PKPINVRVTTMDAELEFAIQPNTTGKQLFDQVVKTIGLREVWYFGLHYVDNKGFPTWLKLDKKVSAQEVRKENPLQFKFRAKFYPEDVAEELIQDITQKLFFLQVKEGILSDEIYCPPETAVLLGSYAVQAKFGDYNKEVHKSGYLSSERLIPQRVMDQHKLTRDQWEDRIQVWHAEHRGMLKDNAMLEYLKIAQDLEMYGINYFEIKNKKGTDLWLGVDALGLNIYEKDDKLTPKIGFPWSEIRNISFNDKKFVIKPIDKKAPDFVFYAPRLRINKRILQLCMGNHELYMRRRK

Kd (NHERF1 [1])	Kd (NHERF1 [2])	stoichiometry N (FERM domain of Ezrin)	stoichiometry N (FERM domain of Merlin)	Kd [3]	stoichiometry N [3]	Kd (Merlin(S518D) [4])	stoichiometry N (Merlin(S518D) [4])	Kd [5]	Kd (Merlin(S518D) [6])	Binder
649 ± 18 nM	459 ± 38 nM									B1
		1.06	0.93	855 ± 160 nM	0.37	1570 ± 322 nM	0.39	956 ± 70 nM	1240 ± 220 nM	B2
